For the assay, the target named is T1, 人Tim-3胞外区 (human, UniProt Q8TDQ0 22-202).
T1 construct: extracellular domain; also called T细胞免疫球蛋白黏蛋白分子3
T1 sequence (looked up): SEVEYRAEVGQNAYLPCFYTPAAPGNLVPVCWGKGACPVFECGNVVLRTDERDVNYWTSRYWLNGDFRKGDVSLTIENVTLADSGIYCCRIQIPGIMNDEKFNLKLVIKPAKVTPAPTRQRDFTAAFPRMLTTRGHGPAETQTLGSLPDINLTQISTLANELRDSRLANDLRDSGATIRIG
In words: hybridoma screening, indirect ELISA. On the technique in general: An ELISA detects its analyte on a solid surface through an enzyme-linked reagent.

B1: 抗人Tim-3单克隆抗体CDT1 (antibody, V domains shown)
VH: VKLQESGGGLVQPGGSLRLSCATSGFTFTDYYMSWVRQPPGKALEWLGFIRNKANGYTTEYSASVKGRFTISRDYSQSILYLQMNTLTAEDSATYFCARDLDYWGQGTTVTVSS
VL: NIMMTQSPSSLAVSAGEKVTMSCKSSQSVLYSSNQKNFLAWYQQKPGQSPELLIYWASTRVSGVPDRFTGSGSGTDFTLTISNVQAEDLAVYYCHQYLSLRTFGGGTKLEI
notes: also called CDT1抗体
Consider B1, for which the binding result was “binds”.

(Values after patent CN108101990A (UNIV ZHEJIANG, dated 2018).)
